Test results from article PMC11767649.

Key:
[1] = target: T1, recombinant human RKIP (rhRKIP) wild type, histidine-tagged (human), P30086; experiment: LC Q-TOF mass spectrometry; purified rhRKIP WT and mutant proteins in buffer at pH 7.4; peaks around 22 kDa (monomer) and 44 kDa (dimer); details: remark: other sources report otherwise
[2] = target: T1, recombinant human RKIP (rhRKIP) wild …; experiment: non-reducing SDS-PAGE; purified rhRKIP in sample loading buffer without β-mercaptoethanol or boiling; Coomassie Brilliant Blue staining or anti-His immunoblot; details: remark: other sources report otherwise

stoichiometry N [1]: 2
stoichiometry N [2]: 2
B1: recombinant human RKIP (rhRKIP) wild type, histidine-tagged, P30086 1-187 (natural protein)
chain: MPVDLSKWSGPLSLQEVDEQPQHPLHVTYAGAAVDELGKVLTPTQVKNRPTSISWDGLDSGKLYTLVLTDPDAPSRKDPKYREWHHFLVVNMKGNDISSGTVLSDYVGSGPPKGTGLHRYVWLVYEQDRPLKCDEPILSNRSGDHRGKFKVASFRKKYELRAPVAGTCYQAEWDDYVPKLYEQLSGK
